This is an account of results in PMC6861513, “Insight into the dimer dissociation process of the Chromobacterium violaceum (S)-selective amine transaminase” (Scientific Reports, 2019).

This data set concerns the molecule itself. The experiment in a line: crystal structure; PMP·Cv-ATA; holo-Cv-ATA crystals grown by sitting drop in 100 mM HEPES pH 7.5, 350 mM NaCl, 22.5% PEG 4000, 0.1 mM PLP, cryoprotected with 20 mM 1-(S)-phenylethylamine; space group P1; 1.67 Å.

B1: Chromobacterium violaceum (S)-selective amine transaminase, wild type (enzyme)
chain: MQKQRTTSQWRELDAAHHLHPFTDTASLNQAGARVMTRGEGVYLWDSEGNKIIDGMAGLWCVNVGYGRKDFAEAARRQMEELPFYNTFFKTTHPAVVELSSLLAEVTPAGFDRVFYTNSGSESVDTMIRMVRRYWDVQGKPEKKTLIGRWNGYHGSTIGGASLGGMKYMHEQGDLPIPGMAHIEQPWWYKHGKDMTPDEFGVVAARWLEEKILEIGADKVAAFVGEPIQGAGGVIVPPATYWPEIERICRKYDVLLVADEVICGFGRTGEWFGHQHFGFQPDLFTAAKGLSSGYLPIGAVFVGKRVAEGLIAGGDFNHGFTYSGHPVCAAVAHANVAALRDEGIVQRVKDDIGPYMQKRWRETFSRFEHVDDVRGVGMVQAFTLVKNKAKRELFPDFGEIGTLCRDIFFRNNLIMRACGDHIVSAPPLVMTRAEVDEMLAVAERCLEEFEQTLKARGLA
notes: omega-transaminase / (S)-selective amine transaminase of Chromobacterium violaceum, GenBank WP_011135573, in pET28a(+); No tag cleavage is described; also called Cv-ATA; Cv-TA; source: E. coli BL21(DE3), purified (HisTrap FF crude, gel filtration on Superdex 200)
Consider B1, for which the binding result is recorded as “binds”.
